Source: paper PMC12177876, “Nanoflow Size Exclusion Chromatography–Native Mass Spectrometry of Intact Proteoforms and Protein Complexes” (Analytical Chemistry, 2025)

B1: catalase (enzyme, UniProt P00432 1-527, looked up)
chain: MADNRDPASDQMKHWKEQRAAQKPDVLTTGGGNPVGDKLNSLTVGPRGPLLVQDVVFTDEMAHFDRERIPERVVHAKGAGAFGYFEVTHDITRYSKAKVFEHIGKRTPIAVRFSTVAGESGSADTVRDPRGFAVKFYTEDGNWDLVGNNTPIFFIRDALLFPSFIHSQKRNPQTHLKDPDMVWDFWSLRPESLHQVSFLFSDRGIPDGHRHMNGYGSHTFKLVNANGEAVYCKFHYKTDQGIKNLSVEDAARLAHEDPDYGLRDLFNAIATGNYPSWTLYIQVMTFSEAEIFPFNPFDLTKVWPHGDYPLIPVGKLVLNRNPVNYFAEVEQLAFDPSNMPPGIEPSPDKMLQGRLFAYPDTHRHRLGPNYLQIPVNCPYRARVANYQRDGPMCMMDNQGGAPNYYPNSFSAPEHQPSALEHRTHFSGDVQRFNSANDDNVTQVRTFYLKVLNEEQRKRLCENIAGHLKDAQLFIQKKAVKNFSDVHPEYGSRIQALLDKYNEEKPKNAVHTYVQHGSHLSAREKANL
notes: Bovine liver catalase is surmised; the source is in the supplement
B2: alcohol dehydrogenase (enzyme, UniProt P00330 1-348, looked up)
chain: MSIPETQKGVIFYESHGKLEYKDIPVPKPKANELLINVKYSGVCHTDLHAWHGDWPLPVKLPLVGGHEGAGVVVGMGENVKGWKIGDYAGIKWLNGSCMACEYCELGNESNCPHADLSGYTHDGSFQQYATADAVQAAHIPQGTDLAQVAPILCAGITVYKALKSANLMAGHWVAISGAAGGLGSLAVQYAKAMGYRVLGIDGGEGKEELFRSIGGEVFIDFTKEKDIVGAVLKATDGGAHGVINVSVSEAAIEASTRYVRANGTTVLVGMPAGAKCCSDVFNQVVKSISIVGSYVGNRADTREALDFFARGLVKSPIKVVGLSTLPEIYEKMEKGQIVGRYVVDTSK
notes: The tetramer mass fits S. cerevisiae ADH1; this is surmised, the source is in the supplement; also called ADH

Target: the molecule itself
Assay: SEC + native MS; nanoflow SEC-nMS of reference proteins: 50 nL of 1 mg mL^-1 protein injected, 200 um ID capillary SEC column, 0.5 uL min^-1, eluted with 200 mM AmAc; isCID varies by protein

Row | Protein | stoichiometry N
1 | B1 | 4
2 | B2 | 4
